Reference: publication PMC10786891, “Massively parallel profiling of RNA-targeting CRISPR-Cas13d”

T1: EsCas13d, nuclease-dead (Eubacterium siraeum, UniProt B0MS50, R295A;H300A;R849A;H854A)
T1 sequence: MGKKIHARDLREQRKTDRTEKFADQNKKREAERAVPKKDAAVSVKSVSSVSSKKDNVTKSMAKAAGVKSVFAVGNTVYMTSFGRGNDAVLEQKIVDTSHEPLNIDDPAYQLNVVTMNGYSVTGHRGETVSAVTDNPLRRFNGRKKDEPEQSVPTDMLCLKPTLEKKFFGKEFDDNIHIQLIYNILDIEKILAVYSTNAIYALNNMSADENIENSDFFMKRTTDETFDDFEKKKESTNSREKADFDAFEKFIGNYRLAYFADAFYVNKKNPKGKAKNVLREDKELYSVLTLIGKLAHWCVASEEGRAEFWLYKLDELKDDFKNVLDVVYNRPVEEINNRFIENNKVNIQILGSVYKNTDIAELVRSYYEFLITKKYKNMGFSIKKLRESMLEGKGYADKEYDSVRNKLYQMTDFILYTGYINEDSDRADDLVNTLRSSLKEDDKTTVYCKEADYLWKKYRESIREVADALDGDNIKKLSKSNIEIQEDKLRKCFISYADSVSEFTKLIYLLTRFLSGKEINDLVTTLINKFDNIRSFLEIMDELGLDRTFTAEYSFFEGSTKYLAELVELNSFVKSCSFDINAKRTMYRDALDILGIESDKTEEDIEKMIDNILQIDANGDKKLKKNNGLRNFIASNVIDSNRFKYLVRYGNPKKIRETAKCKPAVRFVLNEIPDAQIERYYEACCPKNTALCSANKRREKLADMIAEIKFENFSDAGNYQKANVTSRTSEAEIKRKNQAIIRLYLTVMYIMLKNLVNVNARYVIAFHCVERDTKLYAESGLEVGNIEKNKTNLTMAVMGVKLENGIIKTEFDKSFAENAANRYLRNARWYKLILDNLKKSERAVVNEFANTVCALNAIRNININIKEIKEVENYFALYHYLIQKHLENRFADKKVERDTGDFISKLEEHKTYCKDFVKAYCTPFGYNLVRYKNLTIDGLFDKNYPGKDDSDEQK

B1: target 3 U2G (mixed)
RNA 1: CACCCGUGCAAAAUUGCAGGGGUCUAAAACGACCUGAAUAUUUCAGAUCAAA
RNA 2: GGGAAUGGAUCCACAUCUACGAAUUCGUUUUUGAUCUGAAAUAUUCAGGGCUGCAGAUCGGAAGAGCACACGU
B2: target 3 insU 3' of 3,insU 3' of 3 (mixed)
RNA 1: CACCCGUGCAAAAUUGCAGGGGUCUAAAACGACCUGAAUAUUUCAGAUCAAA
RNA 2: GGGAAUGGAUCCACAUCUACGAAUUCGUUUUUGAUCUGAAAUAUUCAGGUUUCUGCAGAUCGGAAGAGCACACGU
B3: target 3 insG 3' of 7,insA 3' of 6 (mixed)
RNA 1: CACCCGUGCAAAAUUGCAGGGGUCUAAAACGACCUGAAUAUUUCAGAUCAAA
RNA 2: GGGAAUGGAUCCACAUCUACGAAUUCGUUUUUGAUCUGAAAUAUUGCAAGGUCUGCAGAUCGGAAGAGCACACGU
B4: target 3 G3C,U8A (mixed)
RNA 1: CACCCGUGCAAAAUUGCAGGGGUCUAAAACGACCUGAAUAUUUCAGAUCAAA
RNA 2: GGGAAUGGAUCCACAUCUACGAAUUCGUUUUUGAUCUGAAAUAAUCAGCUCUGCAGAUCGGAAGAGCACACGU
B5: target 3 G3C,A5C (mixed)
RNA 1: CACCCGUGCAAAAUUGCAGGGGUCUAAAACGACCUGAAUAUUUCAGAUCAAA
RNA 2: GGGAAUGGAUCCACAUCUACGAAUUCGUUUUUGAUCUGAAAUAUUCCGCUCUGCAGAUCGGAAGAGCACACGU
B6: target 3 insA 3' of 7,insU 3' of 3 (mixed)
RNA 1: CACCCGUGCAAAAUUGCAGGGGUCUAAAACGACCUGAAUAUUUCAGAUCAAA
RNA 2: GGGAAUGGAUCCACAUCUACGAAUUCGUUUUUGAUCUGAAAUAUUACAGGUUCUGCAGAUCGGAAGAGCACACGU
B7: target 3 C6U,U7G (mixed)
RNA 1: CACCCGUGCAAAAUUGCAGGGGUCUAAAACGACCUGAAUAUUUCAGAUCAAA
RNA 2: GGGAAUGGAUCCACAUCUACGAAUUCGUUUUUGAUCUGAAAUAUGUAGGUCUGCAGAUCGGAAGAGCACACGU
B8: target 3 U2G,A9U (mixed)
RNA 1: CACCCGUGCAAAAUUGCAGGGGUCUAAAACGACCUGAAUAUUUCAGAUCAAA
RNA 2: GGGAAUGGAUCCACAUCUACGAAUUCGUUUUUGAUCUGAAAUUUUCAGGGCUGCAGAUCGGAAGAGCACACGU
B9: target 3 C1A,U22G (mixed)
RNA 1: CACCCGUGCAAAAUUGCAGGGGUCUAAAACGACCUGAAUAUUUCAGAUCAAA
RNA 2: GGGAAUGGAUCCACAUCUACGAAUUCGUUGUUGAUCUGAAAUAUUCAGGUAUGCAGAUCGGAAGAGCACACGU
B10: target 3 insG 3' of 9,insG 3' of 7 (mixed)
RNA 1: CACCCGUGCAAAAUUGCAGGGGUCUAAAACGACCUGAAUAUUUCAGAUCAAA
RNA 2: GGGAAUGGAUCCACAUCUACGAAUUCGUUUUUGAUCUGAAAUAGUUGCAGGUCUGCAGAUCGGAAGAGCACACGU
B11: target 3 insA 3' of 10,insA 3' of 6 (mixed)
RNA 1: CACCCGUGCAAAAUUGCAGGGGUCUAAAACGACCUGAAUAUUUCAGAUCAAA
RNA 2: GGGAAUGGAUCCACAUCUACGAAUUCGUUUUUGAUCUGAAAUAAUUCAAGGUCUGCAGAUCGGAAGAGCACACGU
B12: target 3 A11C (mixed)
RNA 1: CACCCGUGCAAAAUUGCAGGGGUCUAAAACGACCUGAAUAUUUCAGAUCAAA
RNA 2: GGGAAUGGAUCCACAUCUACGAAUUCGUUUUUGAUCUGAACUAUUCAGGUCUGCAGAUCGGAAGAGCACACGU
B13: target 3 insA 3' of 3,insA 3' of 2 (mixed)
RNA 1: CACCCGUGCAAAAUUGCAGGGGUCUAAAACGACCUGAAUAUUUCAGAUCAAA
RNA 2: GGGAAUGGAUCCACAUCUACGAAUUCGUUUUUGAUCUGAAAUAUUCAGGAUACUGCAGAUCGGAAGAGCACACGU
B14: target 3 insA 3' of 7,insG 3' of 6 (mixed)
RNA 1: CACCCGUGCAAAAUUGCAGGGGUCUAAAACGACCUGAAUAUUUCAGAUCAAA
RNA 2: GGGAAUGGAUCCACAUCUACGAAUUCGUUUUUGAUCUGAAAUAUUACGAGGUCUGCAGAUCGGAAGAGCACACGU
B15: target 3 insG 3' of 9,insA 3' of 6 (mixed)
RNA 1: CACCCGUGCAAAAUUGCAGGGGUCUAAAACGACCUGAAUAUUUCAGAUCAAA
RNA 2: GGGAAUGGAUCCACAUCUACGAAUUCGUUUUUGAUCUGAAAUAGUUCAAGGUCUGCAGAUCGGAAGAGCACACGU
B16: target 3 U2A,A9G (mixed)
RNA 1: CACCCGUGCAAAAUUGCAGGGGUCUAAAACGACCUGAAUAUUUCAGAUCAAA
RNA 2: GGGAAUGGAUCCACAUCUACGAAUUCGUUUUUGAUCUGAAAUGUUCAGGACUGCAGAUCGGAAGAGCACACGU
B17: target 3 insG 3' of 7,insU 3' of 5 (mixed)
RNA 1: CACCCGUGCAAAAUUGCAGGGGUCUAAAACGACCUGAAUAUUUCAGAUCAAA
RNA 2: GGGAAUGGAUCCACAUCUACGAAUUCGUUUUUGAUCUGAAAUAUUGCAUGGUCUGCAGAUCGGAAGAGCACACGU
B18: target 3 insC 3' of 3,insU 3' of 3 (mixed)
RNA 1: CACCCGUGCAAAAUUGCAGGGGUCUAAAACGACCUGAAUAUUUCAGAUCAAA
RNA 2: GGGAAUGGAUCCACAUCUACGAAUUCGUUUUUGAUCUGAAAUAUUCAGGCUUCUGCAGAUCGGAAGAGCACACGU
B19: target 3 insG 3' of 5,insU 3' of 3 (mixed)
RNA 1: CACCCGUGCAAAAUUGCAGGGGUCUAAAACGACCUGAAUAUUUCAGAUCAAA
RNA 2: GGGAAUGGAUCCACAUCUACGAAUUCGUUUUUGAUCUGAAAUAUUCAGGGUUCUGCAGAUCGGAAGAGCACACGU
B20: target 3 C6U,A9G (mixed)
RNA 1: CACCCGUGCAAAAUUGCAGGGGUCUAAAACGACCUGAAUAUUUCAGAUCAAA
RNA 2: GGGAAUGGAUCCACAUCUACGAAUUCGUUUUUGAUCUGAAAUGUUUAGGUCUGCAGAUCGGAAGAGCACACGU
B21: target 3 insC 3' of 4,insA 3' of 3 (mixed)
RNA 1: CACCCGUGCAAAAUUGCAGGGGUCUAAAACGACCUGAAUAUUUCAGAUCAAA
RNA 2: GGGAAUGGAUCCACAUCUACGAAUUCGUUUUUGAUCUGAAAUAUUCAGCGAUCUGCAGAUCGGAAGAGCACACGU
B22: target 3 G4A,A13G (mixed)
RNA 1: CACCCGUGCAAAAUUGCAGGGGUCUAAAACGACCUGAAUAUUUCAGAUCAAA
RNA 2: GGGAAUGGAUCCACAUCUACGAAUUCGUUUUUGAUCUGGAAUAUUCAAGUCUGCAGAUCGGAAGAGCACACGU
B23: target 3 insA 3' of 8,insU 3' of 4 (mixed)
RNA 1: CACCCGUGCAAAAUUGCAGGGGUCUAAAACGACCUGAAUAUUUCAGAUCAAA
RNA 2: GGGAAUGGAUCCACAUCUACGAAUUCGUUUUUGAUCUGAAAUAUAUCAGUGUCUGCAGAUCGGAAGAGCACACGU
B24: target 3 U8A,A18G (mixed)
RNA 1: CACCCGUGCAAAAUUGCAGGGGUCUAAAACGACCUGAAUAUUUCAGAUCAAA
RNA 2: GGGAAUGGAUCCACAUCUACGAAUUCGUUUUUGGUCUGAAAUAAUCAGGUCUGCAGAUCGGAAGAGCACACGU
B25: target 3 complement block 4-7 (mixed)
RNA 1: CACCCGUGCAAAAUUGCAGGGGUCUAAAACGACCUGAAUAUUUCAGAUCAAA
RNA 2: GGGAAUGGAUCCACAUCUACGAAUUCGUUUUUGAUCUGAAAUAUAGUCGUCUGCAGAUCGGAAGAGCACACGU
B26: target 3 U22G (mixed)
RNA 1: CACCCGUGCAAAAUUGCAGGGGUCUAAAACGACCUGAAUAUUUCAGAUCAAA
RNA 2: GGGAAUGGAUCCACAUCUACGAAUUCGUUGUUGAUCUGAAAUAUUCAGGUCUGCAGAUCGGAAGAGCACACGU
B27: target 1 A1G,U3A (mixed)
RNA 1: CACCCGUGCAAAAAUGCAGGGGUCUAAAACUGAGCGGAUAACCUCUCUAUGG
RNA 2: GGGAAUGGAUCCACAUCUACGAAUUCGUACCAUAGAGAGGUUAUCCGCACGCCGAGAUCGGAAGAGCACACGU
B28: target 1 insA 3' of 5,insU 3' of 1 (mixed)
RNA 1: CACCCGUGCAAAAAUGCAGGGGUCUAAAACUGAGCGGAUAACCUCUCUAUGG
RNA 2: GGGAAUGGAUCCACAUCUACGAAUUCGUACCAUAGAGAGGUUAUCCGACUCAUCCGAGAUCGGAAGAGCACACGU

biological target: T1, EsCas13d, nuclease-dead; experiment: crRNA (strand 1, pre-loaded); Mg2+; 40 mM Tris-HCl pH 7.5, 150 mM NaCl, 6 mM MgCl2, 1 mM DTT, 0.1% Tween-20, 0.2 mg/ml BSA; 25 C; 10 min per concentration, then washed; settings: tags: His6-TwinStrep-SUMO cleaved; N-terminal SNAP kept (SNAP-Surface 488); label: 3' end held by stalled T7 RNA polymerase

| Binder | Kd |
| --- | --- |
| B1 | 26.5 ± 2.7 nM |
| B2 | 81 ± 20 nM |
| B3 | 29.3 ± 3.75 nM |
| B4 | 63.5 ± 7.5 nM |
| B5 | 96.5 ± 15.5 nM |
| B6 | 76 ± 32 nM |
| B7 | 39 ± 6 nM |
| B8 | 123 ± 29 nM |
| B9 | ~87 nM |
| B10 | 63 ± 7 nM |
| B11 | 71 ± 8.5 nM |
| B12 | 81.5 ± 34 nM |
| B13 | 26.5 ± 6 nM |
| B14 | 21.1 ± 1.4 nM |
| B15 | 90.5 ± 16 nM |
| B16 | 47 ± 6 nM |
| B17 | 19.9 ± 2.2 nM |
| B18 | 17.9 ± 2.1 nM |
| B19 | 30 ± 4.5 nM |
| B20 | 22.1 ± 1.9 nM |
| B21 | 34 ± 4.05 nM |
| B22 | 112 ± 35 nM |
| B23 | 21.8 ± 3.6 nM |
| B24 | 63 ± 9.5 nM |
| B25 | 23.6 ± 1.75 nM |
| B26 | 61 ± 13 nM |
| B27 | 6.8 ± 0.6 nM |
| B28 | 9.5 ± 1 nM |
